Laboratory results: paper PMC11832770, “NADH-bound AIF activates the mitochondrial CHCHD4/MIA40 chaperone by a substrate-mimicry mechanism” (The EMBO Journal, 2025)

B1: Atto488-CHCHD4 (natural protein, human, UniProt Q8N4Q1 1-142, looked up)
chain: MSYCRQEGKDRIIFVTKEDHETPSSAELVADDPNDPYEEHGLILPNGNINWNCPCLGGMASGPCGEQFKSAFSCFHYSTEEIKGSDCVDQFRAMQECMQKYPDLYPQEDEDEEEEREKKPAEQAEETAPIEATATKEEEGSS
modifications: ATTO 488 (NHS ester) on the N-terminus
notes: not shown: GB1-6X-His, N-terminal, cleaved

Columns and labels:
Conditions in all cases: both partners purified
Atto488-CHCHD4 = target: B1; assay: MST; AIF allostery mutants titrated (1.8 nM–30 µM) into 100 nM Atto488-CHCHD4 without NADH; 25 mM HEPES pH 7.5, 150 mM NaCl, 0.01% Tween-20, 5 mM TCEP; 25 °C
AIF(78-613), wild type = target: T1, AIF(78-613), wild type (human, UniProt O95831 78-613); assay: MST; wild-type AIF titrated (1.8 nM–30 µM) into 100 nM Atto488-CHCHD4 with 300 µM NADH; 25 mM HEPES pH 7.5, 150 mM NaCl, 0.01% Tween-20, 5 mM TCEP; 25 °C
T1 construct: Apoptosis-inducing factor (AIF), human, residues 78-613, lacking the inner mitochondrial membrane tether; Construct from Brosey et al 2016; also called Apoptosis-inducing factor; AIF + NADH; source: E. coli Rosetta2(DE3), purified (Ni-NTA, PreScission cleavage, subtractive Ni-NTA, Superdex 200)

AIF-R529A = target: T2, AIF-R529A (human, UniProt O95831 78-613, R529A); assay: MST; AIF allostery mutants titrated (1.8 nM–30 µM) into 100 nM Atto488-CHCHD4 without NADH; 25 mM HEPES pH 7.5, 150 mM NaCl, 0.01% Tween-20, 5 mM TCEP; 25 °C
T2 construct: Apoptosis-inducing factor (AIF), human, allostery mutant lacking the inner mitochondrial membrane tether; limits read as those of the wild type, 78-613; source: E. coli Rosetta2(DE3), purified (Ni-NTA, PreScission cleavage, subtractive Ni-NTA, Superdex 200)

AIF-W196A = target: T3, AIF-W196A (human, UniProt O95831 78-613, W196A); assay: as above
T3 construct: Apoptosis-inducing factor (AIF), human, allostery mutant lacking the inner mitochondrial membrane tether; limits read as those of the wild type, 78-613; source: E. coli Rosetta2(DE3), purified (Ni-NTA, PreScission cleavage, subtractive Ni-NTA, Superdex 200)

Kd (Atto488-CHCHD4)	Kd (AIF(78-613), wild type)	Kd (AIF-R529A)	Kd (AIF-W196A)	Binder
4000 nM				AIF-ΔC-loop (domain or fragment) VGAGAYAYKTMKEDEKRYNERISGLGLTPEQKQKKAALSASEGEEVPQDKAPSHVPFLLIGGGTAAFAAARSIRARDPGARVLIVSEDPELPYMRPPLSKELWFSDDPNVTKTLRFKQWNGKERSIYFQPPSFYVSAQDLPHIENGGVAVLTGKKVVQLDVRDNMVKLNDGSQITYEKCLIATGGTPRSLSAIDRAGAEVKSRTTLFRKIGDFRSLEKISREVKSITIIGGGFLGSELACALGRKARALGTEVIQLFPEKGNMGKILPEYLSNWTMEKVRREGVKVMPNAIVQSVGVSSGKLLIKLKDGRKVETDHIVAAVGLEPNVELAKTGGLEIDSDFGGFRVNAELQARSNIWVAGDAACFYDIKLGRRRVEHHDHAVVSGRLAGENMTGAAKPYWHQSMFWSDLGPDVGYEAIGLVDSSLPTVGVFYGKGVIFYLRDKVVVGIVLWNIFNRMPIARKIIKDGEQHEDLNEVAKLFNIHED
	340 nM	2500 nM	2200 nM	B1
